Laboratory results taken from paper PMC2978108.

Biological target: recombinant GRD domain of GAPA (37 kDa GRD polypeptide) (D. discoideum)
Test: SEC; analytical gel filtration on Sephadex G75 (SMART system) of the purified GRD domain; OD280

- stoichiometry N: 3
Substance: recombinant GRD domain of GAPA (37 kDa GRD polypeptide) (domain or fragment)
